Experimental data reported in PMC8816864 (Proteins, 2021).

B1: SSA2-GFP (natural protein)
chain: not shown
B2: HSC82 (GFP fusion) (natural protein)
chain: not shown
B3: HSP26 (GFP fusion) (natural protein, S. cerevisiae, UniProt P15992 1-214, looked up)
chain: MSFNSPFFDFFDNINNEVDAFNRLLGEGGLRGYAPRRQLANTPAKDSTGKEVARPNNYAGALYDPRDETLDDWFDNDLSLFPSGFGFPRSVAVPVDILDHDNNYELKVVVPGVKSKKDIDIEYHQNKNQILVSGEIPSTLNEESKDKVKVKESSSGKFKRVITLPDYPGVDADNIKADYANGVLTLTVPKLKPQKDGKNHVKKIEVSSQESWGN
B4: HSP60 (GFP fusion) (natural protein, S. cerevisiae, UniProt P19882 26-572, looked up)
chain: ELKFGVEGRASLLKGVETLAEAVAATLGPKGRNVLIEQPFGPPKITKDGVTVAKSIVLKDKFENMGAKLLQEVASKTNEAAGDGTTSATVLGRAIFTESVKNVAAGCNPMDLRRGSQVAVEKVIEFLSANKKEITTSEEIAQVATISANGDSHVGKLLASAMEKVGKEGVITIREGRTLEDELEVTEGMRFDRGFISPYFITDPKSSKVEFEKPLLLLSEKKISSIQDILPALEISNQSRRPLLIIAEDVDGEALAACILNKLRGQVKVCAVKAPGFGDNRKNTIGDIAVLTGGTVFTEELDLKPEQCTIENLGSCDSITVTKEDTVILNGSGPKEAIQERIEQIKGSIDITTTNSYEKEKLQERLAKLSGGVAVIRVGGASEVEVGEKKDRYDDALNATRAAVEEGILPGGGTALVKASRVLDEVVVDNFDQKLGVDIIRKAITRPAKQIIENAGEEGSVIIGKLIDEYGDDFAKGYDASKSEYTDMLATGIIDPFKVVRSGLVDASGVASLLATTEVAIVDAPEPPAAAGAGGMPGGMPGMPGMM
B5: HSP82 (GFP fusion) (natural protein)
chain: not shown
B6: SSA1-GFP (natural protein)
chain: not shown
B7: eRF1-GFP (natural protein, S. cerevisiae, UniProt P12385 1-437, looked up)
chain: MDNEVEKNIEIWKVKKLVQSLEKARGNGTSMISLVIPPKGQIPLYQKMLTDEYGTASNIKSRVNRLSVLSAITSTQQKLKLYNTLPKNGLVLYCGDIITEDGKEKKVTFDIEPYKPINTSLYLCDNKFHTEVLSELLQADDKFGFIVMDGQGTLFGSVSGNTRTVLHKFTVDLPKKHGRGGQSALRFARLREEKRHNYVRKVAEVAVQNFITNDKVNVKGLILAGSADFKTDLAKSELFDPRLACKVISIVDVSYGGENGFNQAIELSAEALANVKYVQEKKLLEAYFDEISQDTGKFCYGIDDTLKALDLGAVEKLIVFENLETIRYTFKDAEDNEVIKFAEPEAKDKSFAIDKATGQEMDVVSEEPLIEWLAANYKNFGATLEFITDKSSEGAQFVTGFGGIGAMLRYKVNFEQLVDESEDEYYDEDEGSDYDFI

What follows are binders tested against T1, Flag-eRF1 (S. cerevisiae, UniProt P12385 1-437) (assay: co-IP + AUC).

Row | Binder | normalized AU-FDS intensity relative to SUP35-GFP (19S peak) | normalized AU-FDS intensity relative to SUP35-GFP (28S peak) | normalized AU-FDS intensity relative to SUP35-GFP (39S peak) | normalized AU-FDS intensity relative to SUP35-GFP (57S peak) | normalized AU-FDS intensity relative to SUP35-GFP (77S-200S)
1 | B1 | 0.28 | 0.35 | 0.36 | 0.27 | 0.38
2 | B2 | 0.08 | 0.088 | 0.11 | 0.11 | 0.083
3 | B3 | 0.087 | 0.12 | 0.056 | 0.052 | 0.065
4 | B4 | 0.069 | 0.11 | 0.1 | 0.11 | 0.13
5 | B5 | 0.066 | 0.13 | 0.075 | 0.058 | 0.027
6 | B6 | 0.29 | 0.37 | 0.28 | 0.28 | 0.31

Biological target: T1, Flag-eRF1
Assay: co-IP + AUC
Remark: another data set of the same source

Row | Binder | % abundance in the Flag-eRF1 pull-down normalized to SUP35 (19S-200S) [%]
7 | B1 | 33 ± 3.45
8 | B2 | 9.5 ± 3.5
9 | B3 | 7.6 ± 2.9
10 | B4 | 11 ± 0.75
11 | B5 | 8.6 ± 2.9
12 | B6 | 30 ± 0.63
13 | B7 | 13 ± 4.5
